# Patent US9909146B2, “Production of alkenes by enzymatic decarboxylation of 3-hydroxyalkanoic acids” (priority 2008, dated 2018)
# T1: MDP decarboxylase of Saccharomyces cerevisiae (Saccharomyces cerevisiae, UniProt P32377)
# T1 construct: made in house; host or cells: E. coli BL21
# T1 sequence (P32377 1-396): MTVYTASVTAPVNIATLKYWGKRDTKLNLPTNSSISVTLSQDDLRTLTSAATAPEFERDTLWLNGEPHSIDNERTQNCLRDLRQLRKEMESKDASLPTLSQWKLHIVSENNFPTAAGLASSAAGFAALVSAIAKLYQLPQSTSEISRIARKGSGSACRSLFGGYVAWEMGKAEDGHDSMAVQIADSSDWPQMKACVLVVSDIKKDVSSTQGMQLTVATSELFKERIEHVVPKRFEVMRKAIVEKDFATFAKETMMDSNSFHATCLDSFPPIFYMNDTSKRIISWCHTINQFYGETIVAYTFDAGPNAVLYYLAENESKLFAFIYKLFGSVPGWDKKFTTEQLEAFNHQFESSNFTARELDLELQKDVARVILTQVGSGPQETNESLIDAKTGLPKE
# T2: enzyme SEQ ID NO: 6 (MDP decarboxylase) (Picrophilus torridus, UniProt Q6KZB1)
# T2 construct: 6-Histidine tag (N); made in house; host or cells: E. coli BL21(DE3)
# T2 sequence (Q6KZB1 1-324): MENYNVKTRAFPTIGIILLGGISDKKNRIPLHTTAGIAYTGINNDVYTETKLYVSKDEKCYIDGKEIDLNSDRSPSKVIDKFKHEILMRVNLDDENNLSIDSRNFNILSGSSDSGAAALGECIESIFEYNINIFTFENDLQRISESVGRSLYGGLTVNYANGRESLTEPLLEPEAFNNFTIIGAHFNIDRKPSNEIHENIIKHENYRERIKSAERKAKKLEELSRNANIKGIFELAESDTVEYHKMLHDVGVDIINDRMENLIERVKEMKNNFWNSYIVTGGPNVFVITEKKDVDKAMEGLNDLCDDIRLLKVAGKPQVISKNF
# B1: Candidate 10: purified decarboxylase enzyme of SEQ ID NO: 6 from Picrophilus torridus, Q6KZB1, N-terminal His tag (protein)
# chain: T2 sequence (Q6KZB1 1-324)
# modifications: N-terminal His tag
# Assays:
# [1] = target: T1, MDP decarboxylase of Saccharomyces cerevisiae; test: Activity of protein extract (S. cerevisiae MDP decarboxylase) towards 3-hydroxy-3-methylbutyrate, with or without cofactor; assay type: biochemical
# Method: The gene encoding MDP decarboxylase of Saccharomyces cerevisiae is synthesized from overlapping oligonucleotides and cloned in a pET plasmid (Novagen) allowing expression in bacteria. Said plasmid is then transformed by electroporation into bacterial strain BL21 (Invitrogen). The bacteria are streaked on a Petri dish containing ampicillin and incubated at 37° C. The next day, a bacterial colony is randomly selected and used to inoculate 50 ml of LB medium containing ampicillin. The culture is incubated for 24 h while shaking, after which the culture is centrifuged, the bacteria lysed by sonication, and a total protein extract prepared. An aliquot of the extract is loaded on an electrophoresis gel together with a protein extract from the same strain which has not been transformed, and with molecular weight markers. […]
# Vials are sealed with a septum and crimped. […] After incubation, a gas syringe is used to collect the gas present in each vial, and the CO2 concentration in the samples is measured by gas chromatography. […] The presence of isobutylene in the gas sample from vial 6 is then measured by gas chromatography with infrared or flame ionization detection. […]
# As in the previous example, isobutylene formation is measured by gas chromatography with infrared or flame ionization detection.
# [2] = target: T2, enzyme SEQ ID NO: 6 (MDP decarboxylase); test: Effect of ATP co-substrate and Mg2+ cofactor on IBN production by enzyme SEQ ID NO: 6; assay type: biochemical; conditions: 1 mg/ml enzyme, 72 h at 30° C.
# Method: Effect of ATP Co-Substrate
# (§1) 200 mM HIV (to be specified)
# (§2) Incubation 72 h at 30° C.
# Other molecules, and in particular those containing a phosphoanhydride bond, could also be efficient co-substrates for the enzyme.
# Other ions, and in particular other divalent ions, could be used as cofactor in place of or in addition to Mg^2+ ions.
# [3] = target: T2, enzyme SEQ ID NO: 6 (MDP decarboxylase); test: Substrate range test, Km of enzyme SEQ ID NO: 6 for HIV; assay type: biochemical; conditions: previously described conditions, incubation at 50° C., read-out: Km of the enzyme / affinity for HIV
# Method: FIG. 13: IBN production according to concentration of HIV substrate.
# A substrate range was tested in the previously described conditions, with incubation at 50° C. The Km of the enzyme is approximately 40 mM HIV.
# [4] = Conversion of HIV to isobutylene (IBN) by purified enzyme SEQ ID NO: 6, GC measurement; assay type: biochemical, Picrophilus torridus
# Method: The recombinant enzyme was purified as described in example 4.
# The activity of the isolated enzyme was confirmed. The reaction was carried out in the following conditions:
# After 72 h incubation at 30° C., the signal was measured by GC/MS. In the presence of the enzyme, IBN production was increased here by approximately 2.3-fold over background noise. The background noise observed here is in agreement with the organic chemistry literature, showing that in aqueous solution and at a temperature of around 100° C., 3-hydroxyisovaleric acid slowly decarboxylates to tert-butanol, which is partially dehydrated to isobutylene, following an equilibrium favorable to the formation of tert-butanol (Pressman and Luca, J. Am. Chem. Soc. 1940).
# Enzymatic Activity According to Temperature
# as §1
# Incubation 72 h at different temperatures.
# as §2
# Optimal conditions were obtained with a pH of 5.5 in 100 mM citrate.
# Optimization of Reaction Conditions
# Optimum reaction conditions were sought, and the following conditions were retained:
# Incubation 48 h at 50° C.
# [5] = Screening of a library of 63 MDP decarboxylase family enzymes for activity on HIV; assay type: biochemical; conditions: 200 mM HIV, 10 mM ATP, pH 5.5 or 7.0, 37° C. for 72 h, GC/MS
# From the text: A library of 63 genes encoding enzymes from the MDP decarboxylase family was obtained and tested for activity on HIV as substrate.
# The genes encoding the mevalonate diphosphate (MDP) decarboxylase family EC 4.1.1.33 were cloned in the pET 25b vector (Novagen) in the case of eukaryotic genes and pET 22b (Novagen) for genes of prokaryotic origin, with a 6-Histidine tag at the N-terminal end immediately after the methionine initiation codon. Competent E. coli BL21(DE3) cells (Novagen) were transformed with these vectors by heat shock. The cells were grown with shaking (160 rpm) at 30° C. in TB medium containing 0.5 M sorbitol, 5 mM betain, 100 μg/ml ampicillin until reaching an OD at 600 nm comprised between 0.8 and 1. Isopropyl-B-D-thiogalactopyranoside (IPTG) was then added to a final concentration of 1 mM and protein expression was continued at 20° C. overnight (approximately 16 h). The cells were collected by centrifugation at 4° C., 10,000 rpm for 20 min and the pellets were frozen at −80° C. […]
# The clarified bacterial lysates were loaded on a PROTINO-1000 Ni-IDA column (Macherey-Nagel) allowing adsorption of 6-His tag proteins. […] Protein was quantified by the Bradford method. […]
# The gas present above the reactions was collected with a syringe equipped with a no-return mechanism. The gas sample was analyzed by gas chromatography (GC) coupled with mass spectrometry (MS). […]
molecule,measurement,setting,value
"CCOP(=O)(O)OP(=O)(O)O [ethyl diphosphate, reference compound]",amount of isobutylene produced over time with cofactor,[1]; 10 μl of 10 mg/l ethyl diphosphate added to 3-hydroxy-3-methylbutyrate reaction,markedly higher
Nc1ncnc2c1ncn2[C@@H]1O[C@H](COP(=O)(O)OP(=O)(O)OP(=O)(O)O)[C@@H](O)[C@H]1O [ATP],enzyme activity (IBN production) in presence and absence of ATP,"[2]; 0 or 10 mM ATP, 100 mM citrate pH 5.5, 200 mM HIV",only observed in the presence
[Mg+2] [Mg^2+],enzyme activity (IBN production) in presence and absence of Mg2+,"[2]; 0 or 5 mM MgCl2, 100 mM citrate pH 5.5, 10 mM ATP, 200 mM HIV",improved
"CC(C)(O)CC(=O)O [HIV, 3-hydroxy-3-methylbutyrate]",Km,[3],~40 mM
same,reaction of the enzyme preparation (CO2 detected by gas chromatography),"[1]; vial 6, 5 mM ATP, 10 mM MgCl2, 37° C., 4 hours to 3 days",significant reaction
B1,IBN production in presence of enzyme over background noise,"[4]; 100 mM Tris-HCl, 10 mM MgCl2, 10 mM ATP, 20 mM KCl, pH 6.0, 3 mg/ml enzyme, 72 h at 30° C., GC/MS",approximately 2.3 fold
same,temperature optimum of enzymatic activity,"[4]; 100 mM buffer, 50 mM KCl, 10 mM ATP, 200 mM HIV, 1 mg/ml enzyme, 72 h at different temperatures",approximately 50 °C
same,optimal pH of enzymatic activity,"[4]; 100 mM citrate, 50 mM KCl, 10 mM ATP, 200 mM HIV, 1 mg/ml enzyme, 72 h at 30° C.",5.5
same,signal-to-noise ratio (measured in the absence of enzyme) for the conversion yield,"[4]; in some conditions, example 5",approximately 100 fold
same,ratio of the signal over background noise,"[4]; optimized: 100 mM citrate, 50 mM KCl, 40 mM ATP, 200 mM HIV, 1 mg/ml enzyme, 48 h at 50° C., GC-FID",approximately 100
same,level of isobutylene (IBN) production in library screening,[5],highest levels
